Results reported in patent US20090304577A1.
No end group written: not given here.

Legend:
[1] = target: monoclonal anti-TCR Vβ antibody; assay: ELISA; plate coated with CDR-H2 homodimer, tested against α-TCR Vβ; mean ± SD of three observations
[2] = target: monoclonal anti-TCR Vβ antibody; assay: ELISA OD with α-TCR Vβ on plate coated with CDR-H2 homodimer, against control (culture medium/PBS)
[3] = target: monoclonal anti-TCR Vβ antibody; assay: ELISA; plate coated with CDR-L3 homodimer, tested against α-TCR Vβ; mean ± SD of three observations
[4] = target: monoclonal anti-TCR Vβ antibody; assay: ELISA OD with α-TCR Vβ on plate coated with CDR-L3 homodimer, against control (culture medium/PBS)
[5] = target: monoclonal anti-TCR Vβ antibody; assay: ELISA; plate coated with CDR-H3 homodimer, tested against α-TCR Vβ; mean ± SD of three observations
[6] = target: monoclonal anti-TCR Vβ antibody; assay: ELISA OD with α-TCR Vβ on plate coated with CDR-H3 homodimer, against control (culture medium/PBS)

B1: CDR-H2 homodimer peptide (SEQ ID NO:8 with an added N terminal cysteine, dimerised) (peptide)
peptide: CNIYPSDSYTNYNQKFKD
modifications: also: homodimer, linkage not given here
[1]
  optical density: 0.307 OD
[2]
  Ratio Test/Control: 1.83

B2: CDR-L3 homodimer peptide (SEQ ID NO:16 with an added N terminal cysteine, dimerised) (peptide)
peptide: CQQYNSYPLT
modifications: also: homodimer, linkage not given here
[3]
  optical density: 0.243 OD
[4]
  Ratio Test/Control: 1.74

B3: CDR-H3 homodimer peptide (SEQ ID NO:10 with an added N terminal cysteine, dimerised) (peptide)
peptide: CLRGLLPDY
modifications: also: homodimer, linkage not given here
[5]
  optical density: 0.182 OD
[6]
  Ratio Test/Control: 2
